From patent US9644034B2, “Anti-RSPO2 antibodies and uses thereof” (OncoMed Pharmaceuticals, Inc., priority 2011, dated 2017)

B1: 89M5: anti-RSPO1 monoclonal antibody, hybridoma ATCC PTA-11970; variable regions SEQ ID NO:10 and SEQ ID NO:11 (antibody, V domains shown)
VH: EVQLQQSGPELVKPGASVKISCKTSGYTFTGYTMHWVRQSHGKTLEWIGGINPNNGGTTYNQNFKGKATLTVEKSSTTAYLELRSLTSEDSALYYCARKEFSDGYYFFAYWGQGTLVTVSA
VL: DIVMTQSHKFMSTSVGDRVNITCKASQDVIFAVAWYQQKPGQSPKLLIYWASTRHTGVPDRFTGSVSGTDYTLTISSVQAEDLALYYCQQHYSTPWTFGGGTKLEIK
modifications: 89M5 Heavy chain variable region; 89M5 Light chain variable region
B2: h130M23-H1L2: humanized anti-RSPO2 antibody; heavy chain SEQ ID NO:70, light chain SEQ ID NO:71 (antibody)
heavy: EVQLVESGGGLVKPGGSLRLSCAASGFTFSSYAMSWVRQAPGKGLEWVSSISSGGSTYYPDSVKGRFTISRDNAKNSLYLQMNSLRAEDTAVYYCARGGDPGVYNGDYEDAMDYWGQGTTVTVSSASTKGPSVFPLAPCSRSTSESTAALGCLVKDYFPEPVTVSWNSGALTSGVHTFPAVLQSSGLYSLSSVVTVPSSNFGTQTYTCNVDHKPSNTKVDKTVERKCCVECPPCPAPPVAGPSVFLFPPKPKDTLMISRTPEVTCVVVDVSHEDPEVQFNWYVDGVEVHNAKTKPREEQFNSTFRVVSVLTVVHQDWLNGKEYKCKVSNKGLPAPIEKTISKTKGQPREPQVYTLPPSREEMTKNQVSLTCLVKGFYPSDIAVEWESNGQPENNYKTTPPMLDSDGSFFLYSKLTVDKSRWQQGNVFSCSVMHEALHNHYTQKSLSLSPGK
light: DIQMTQSPSSLSASVGDRVTITCKASQDVSSAVAWYQQKPGKAPKLLIYWASTRHTGVPSRFSGSGSGTDFTLTISSVQAEDFATYYCQQHYSTPWTFGQGTKVEIKRTVAAPSVFIFPPSDEQLKSGTASVVCLLNNFYPREAKVQWKVDNALQSGNSQESVTEQDSKDSTYSLSNTLTLSKADYEKHKVYACEVTHQGLSSPVTKSFNRGEC
modifications: h130M23-H1L2 Heavy chain amino acid sequence; h130M23-H1L2 Light chain amino acid sequence

Tests used:
[1] = test system: RSPO1-induced β-catenin signaling; assay: TOPflash luciferase assay in HEK-293 cells, Wnt3a plus human RSPO1; assay type: cell-based; details: Wnt3a 5 ng/ml, RSPO1 10 ng/ml; antibodies 10 to 0.625 μg/ml
Method: HEK-293 cells were transfected with a 6×TCF-luciferase reporter vector (TOPflash, Millipore, Billerica, Mass.). After 24-48 hrs, the transfected HEK-293 cells were incubated with a combination of Wnt3a (5 ng/ml) and human RSPO1 (10 ng/ml, R&D BioSystems) in the presence of anti-RSPO1 antibodies 89M2, 89M4, 89M5, 89M7, 89M19, and 89M25, or 2 irrelevant control antibodies 254M14 and 254M26 (2-fold dilutions at 10 μg/ml to 0.625 μg/ml). The cells were incubated for 16 hours and luciferase activity was measured using Steady-Glo® Luciferase Assay System according to the manufacturer's instructions (Promega, Madison, Wis.).

[2] = test system: PN31 pancreatic tumor cells; assay: PN31 pancreatic tumor xenograft growth in NOD/SCID mice; assay type: in vivo; details: antibodies 15 mg/kg once a week, intraperitoneal
Method: Dissociated PN31 pancreatic tumor cells (1×10^5cells) were injected subcutaneously into the flanks of 6-8 week old NOD/SCID mice. Tumors were allowed to grow for 61 days until they reached an average volume of 120 mm^3. The mice were randomized (n=10 per group) and treated with anti-RSPO1 antibody 89M5, anti-RSPO2 antibody 130M23, gemcitabine, a combination of 89M5 and gemcitabine, a combination of 130M23 and gemcitabine, or control antibody 1B7.11. Antibodies were dosed at 15 mg/kg once a week, and gemcitabine was dosed at […] once a week. Administration of the antibodies and gemcitabine was performed via injection into the intraperitoneal cavity. Tumor growth was monitored and tumor volumes were measured with electronic calipers at specific time points. Data are expressed as mean±S.E.M.

[3] = test system: OV19 ovarian tumor cells; assay: OV19 ovarian tumor xenograft growth in NOD/SCID mice; assay type: in vivo; details: day 35, vs control antibody; antibodies 15 mg/kg once a week, intraperitoneal
Method: Dissociated OV19 ovarian tumor cells (1×10^5cells) were injected in the mammary fat pads of 6-8 week old NOD/SCID mice. Tumors were allowed to grow for 45 days until they reached an average volume of 134 mm^3. The mice were randomized (n=10 per group) and treated with anti-RSPO1 antibody 89M5, 89M25, taxol, a combination of 89M5 and taxol, a combination of 89M25 and taxol, or control antibody 1B7.11. Antibodies were dosed at 15 mg/kg once a week, and taxol was dosed at […] once a week. Administration of the antibodies and taxol was performed via injection into the intraperitoneal cavity. Tumor growth was monitored and tumor volumes were measured with electronic calipers at the indicated time points. Data are expressed as mean±S.E.M.

[4] = molecular target: T1, binding of RSPO1 to LGR5 (Homo sapiens, UniProt Q2MKA7); assay: FACS: blocking of soluble RSPO1-Fc binding to LGR5 on HEK-293 cells; details: RSPO1-Fc 10 μg/ml, antibodies 10 μg/ml
T1 construct: full-length human RSPO1, RSPO2, RSPO3 and RSPO4 were ligated in-frame to a human Fc region; made in house; host or cells: RSPO1-Fc: insect cells (baculovirus); LGR5 construct: transiently transfected HEK-293
T1 sequence (Q2MKA7 21-263): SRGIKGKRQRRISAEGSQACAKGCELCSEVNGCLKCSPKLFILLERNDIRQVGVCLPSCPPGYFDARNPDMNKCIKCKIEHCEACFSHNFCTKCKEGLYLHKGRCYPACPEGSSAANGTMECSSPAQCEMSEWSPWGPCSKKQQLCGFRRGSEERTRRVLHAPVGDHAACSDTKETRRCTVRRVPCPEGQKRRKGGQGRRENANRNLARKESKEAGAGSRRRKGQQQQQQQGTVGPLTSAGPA
Method: HEK-293 cells were transiently transfected with the FLAG-LGR5-CD4TM-GFP construct (previously described in Example 2). After 48 hours, transfected cells were suspended in ice cold PBS containing 2% FBS and heparin and incubated on ice in the presence of RSPO1-Fc protein (10 μg/ml) and antibodies 89M2, 89M4, 89M5, 89M7, 89M19 or 89M25 (10 μg/ml). A second incubation with 100 μl PE-conjugated anti-human Fc secondary antibody was performed to detect cells bound by the RSPO1-Fc fusion protein. The cells were analyzed on a FACSCalibur instrument (BD Biosciences, San Jose, Calif.) and the data was processed using FlowJo software.

[5] = molecular target: T2, human RSPO1 (Homo sapiens, UniProt Q2MKA7); assay: FACS binding of 89M5 and humanized 89M5 to HEK293 cells expressing FLAG-RSPO1furin-CD4TM-GFP; details: five-fold serial dilutions
T2 construct: followed by the two furin-like domains of RSPO1 (aa 34-135); expressed in transfected cells; host or cells: HEK-293
T2 sequence (Q2MKA7 34-135): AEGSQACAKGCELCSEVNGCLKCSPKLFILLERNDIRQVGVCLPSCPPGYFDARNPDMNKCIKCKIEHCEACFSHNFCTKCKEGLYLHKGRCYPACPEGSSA
Method: HEK293 cells were transiently transfected with an expression vector encoding FLAG-RSPO1furin-CD4TM-GFP. As described in Example 5, FLAG-RSPO1furin-CD4TM-GFP is a chimeric fusion protein enabling cell surface expression of the N-terminal furin-like domains of human RSPO1. FLAG-RSPO1 furin-CD4TM-GFP transfected cells were incubated in the presence of anti-RSPO1 antibody 89M5 or humanized anti-RSPO1 antibody h89M5-H2L2. Five-fold serial dilutions of each antibody were examined for their ability to bind to the RSPO1 expressing cells. The cells were stained with Phycoerythrin conjugated anti-IgG to reveal bound antibody. The cells were analyzed on a FACSCalibur instrument (BD Biosciences, San Jose, Calif.) and the data was processed using FlowJo software.

[6] = molecular target: T2, human RSPO1; assay: FACS screening of hybridoma supernatants on HEK-293 cells expressing FLAG-RSPO1furin-CD4TM-GFP; assay type: binding
Excerpt: Antibodies were generated against recombinant human RSPO1 protein amino acids 31-263 (R&D Systems, Minneapolis, Minn.). Mice (n=3) were immunized with RSPO1 protein using standard techniques. Sera from individual mice were screened against RSPO1 approximately 70 days after initial immunization using FACS analysis. The animal with the highest antibody titer was selected for final antigen boost after which spleen cells were isolated for hybridoma production. SP2/0 cells were used as fusion partners for the mouse spleen cells. Hybridoma cells were plated at 1 cell per well in 96 well plates, and the supernatants were screened against human RSPO1 by FACS analysis.
For FACS screening of anti-RSPO1 antibodies a chimeric fusion protein enabling cell surface expression of the N-terminal furin-like domains of human RSPO1 was constructed.
HEK-293 cells were transfected with FLAG-RSPOlfurin-CD4TM-GFP. After 48 hours, transfected cells were suspended in ice cold PBS containing 2% FBS and heparin and incubated on ice in the presence of 50 μl of hybridoma supernatants for 30 minutes. A second incubation with 100 μl PE-conjugated […] secondary antibody was performed to detect cells bound by antibody. Cells were incubated with an anti-FLAG antibody (Sigma-Aldrich, St. Louis, Mo.) as a positive control and an anti-PE antibody as a negative control. The cells were analyzed on a FACSCalibur instrument (BD Biosciences, San Jose, Calif.) and the data was processed using FlowJo software.

[7] = molecular target: T3, human RSPO2 (Homo sapiens, UniProt Q6UXX9); assay: FACS binding of 130M23 and humanized 130M23 to HEK293 cells expressing FLAG-RSPO2furin-CD4TM-GFP; details: five-fold serial dilutions
T3 construct: followed by the furin-like domains of RSPO2 (aa 31-146); expressed in transfected cells; host or cells: HEK-293
T3 sequence (Q6UXX9 31-146): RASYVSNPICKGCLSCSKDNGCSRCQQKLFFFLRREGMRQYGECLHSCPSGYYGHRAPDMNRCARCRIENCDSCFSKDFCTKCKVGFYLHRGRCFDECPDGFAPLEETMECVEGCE
Method: HEK293 cells were transiently transfected with an expression vector encoding FLAG-RSPO2furin-CD4TM-GFP. As described in Example 11, FLAG-RSPO2furin-CD4TM-GFP is a chimeric fusion protein enabling cell surface expression of the N-terminal furin-like domains of human RSPO2. FLAG-RSPO2furin-CD4TM-GFP transfected cells were incubated in the presence of anti-RSPO2 antibody 130M23 or humanized anti-RSPO2 antibody […]. Five-fold serial dilutions of each antibody were examined for their ability to bind to the RSPO2 expressing cells. The cells were stained with Phycoerythrin conjugated anti-IgG to reveal bound antibody. The cells were analyzed on a FACSCalibur instrument (BD Biosciences, San Jose, Calif.) and the data was processed using FlowJo software.

| Molecule | blocking of RSPO1-induced β-catenin signaling [1] | effect on tumor growth as single agents [2] | reduction in tumor growth [3] [%] | blocking of binding of RSPO1 to LGR5 [4] | binding to human RSPO1 (FACS) [5] | binding to RSPO1 (FACS) [6] | binding to human RSPO2 (FACS) [7] |
| --- | --- | --- | --- | --- | --- | --- | --- |
| B1 | blocked | only a minimal effect | 40 | blocked | bind | bound | – |
| B2 | – | – | – | – | – | – | bind |
